Assay results taken from patent publication US20040235112.

What was measured:
[1] = biological target: GST-p38 (UniProt Q16539)
[2] = biological target: GST-JNK2 (UniProt P45984)
[3] = system: GST [GST: P08515]
[4] = biological target: T1, GST-ATF2 (UniProt P15336)
T1 sequence: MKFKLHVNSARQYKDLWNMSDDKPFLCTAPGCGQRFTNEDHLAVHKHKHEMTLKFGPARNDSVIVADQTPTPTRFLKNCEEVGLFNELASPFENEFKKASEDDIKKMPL

[5] = system: His-ERK1[K52R]
[6] = biological target: GST-cJun(1-79) (UniProt P05412)
GST-cJun(1-79), sequence (P05412 1-79): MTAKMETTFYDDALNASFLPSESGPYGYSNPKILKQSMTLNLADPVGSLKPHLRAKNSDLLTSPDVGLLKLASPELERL

GST-p38, sequence (Q16539 whole entry): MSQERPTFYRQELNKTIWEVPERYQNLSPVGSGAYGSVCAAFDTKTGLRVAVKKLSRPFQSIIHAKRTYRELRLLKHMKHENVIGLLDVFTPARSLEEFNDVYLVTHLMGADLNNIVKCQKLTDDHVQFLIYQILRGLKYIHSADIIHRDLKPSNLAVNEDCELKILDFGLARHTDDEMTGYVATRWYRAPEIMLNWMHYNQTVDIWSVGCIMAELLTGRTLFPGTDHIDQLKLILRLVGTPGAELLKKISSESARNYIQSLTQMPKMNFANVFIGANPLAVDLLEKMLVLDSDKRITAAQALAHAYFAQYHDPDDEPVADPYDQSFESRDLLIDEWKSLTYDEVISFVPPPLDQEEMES
GST [GST: P08515], sequence (P08515 whole entry): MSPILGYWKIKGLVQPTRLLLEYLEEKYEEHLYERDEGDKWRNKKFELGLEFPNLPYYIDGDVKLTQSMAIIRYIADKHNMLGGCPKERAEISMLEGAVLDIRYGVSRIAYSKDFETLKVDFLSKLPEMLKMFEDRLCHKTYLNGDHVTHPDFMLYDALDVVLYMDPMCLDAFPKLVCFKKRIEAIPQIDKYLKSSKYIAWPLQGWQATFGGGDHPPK

Row | Substance | phosphorylation of GST-p38 in immune complex kinase assay (HeLa lysates, anti-HA 12CA5 immunoprecipitate) [1] | phosphorylation of substrate in in vitro kinase assay ([γ-32P]ATP, SDS-PAGE, autoradiography) [2] | phosphorylation of substrate in in vitro kinase assay ([γ-32P]ATP, SDS-PAGE, autoradiography) [3] | phosphorylation of GST-ATF2 in coupled in vitro kinase assay [4] | phosphorylation of substrate in in vitro kinase assay ([γ-32P]ATP, SDS-PAGE, autoradiography) [5] | phosphorylation of substrate in in vitro kinase assay ([γ-32P]ATP, SDS-PAGE, autoradiography) [1] | phosphorylation of GST-Jun(1-79) in coupled in vitro kinase assay [6]
1 | 3xHA-MEK6 | MEK6 activation by anisomycin as measured by its ability to phosphorylate p38, was observed as early as 10 min after treatment |  |  |  |  |  | 
2 | GST-MEK6 |  | MEK6 efficiently phosphorylated p38 but none of the other substrates | MEK6 efficiently phosphorylated p38 but none of the other substrates | ATF2 was not directly phosphorylated by MEK6 | MEK6 efficiently phosphorylated p38 but none of the other substrates | MEK6 efficiently phosphorylated p38 but none of the other substrates | MEK6 did not cause increased phosphorylation of Jun (GST-Jun(1-79) ...) either directly or in combination with JNK2
